The values that follow come from paper PMC3684423 (Structure (London, England : 1993), 2012).

Where no end group is shown, it is not given here. [ ]: non-standard residue; d: D form. pT = C[C@@H](OP(=O)(O)O)[C@H](N)C(=O)O

The target in assay [1] is T1, N-terminal Smac/DIABLO(1–15) peptide.
T1 sequence (Q9NR28 22-36, species assumed, looked up): LCVPVVANFKKRCFS
In words: ITC. (In general: ITC needs no label: the signal is the heat of the interaction.)

The next assay addresses Survivin 1-142 (UniProt O15392). Nature of the assay: peptide-bead pull-down, Coomassie stain.
The target of another assay is Survivin W67A mutant (human, UniProt O15392 1-142, W67A). In words: ITC.
The target of the next assay is Survivin L64A mutant (human, UniProt O15392 1-142, L64A). In words: ITC.
The next assay deals with Survivin E63A mutant (human, UniProt O15392 1-142, E63A). Nature of the assay: ITC.
A further assay has as its target Survivin H80A mutant (human, UniProt O15392 1-142, H80A). Nature of the assay: ITC.

Sequence of Survivin E63A mutant (O15392 whole entry E63A): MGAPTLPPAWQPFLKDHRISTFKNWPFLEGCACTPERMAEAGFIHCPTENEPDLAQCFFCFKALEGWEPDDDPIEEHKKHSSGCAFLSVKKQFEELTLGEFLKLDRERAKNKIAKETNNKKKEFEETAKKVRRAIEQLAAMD
Sequence of Survivin W67A mutant (O15392 whole entry W67A): as the sequence (O15392 whole entry E63A) above, with A63E, W67A counted along it
Sequence of Survivin L64A mutant (O15392 whole entry L64A): as the sequence (O15392 whole entry E63A) above, with A63E, L64A counted along it
Sequence of Survivin H80A mutant (O15392 whole entry H80A): as the sequence (O15392 whole entry E63A) above, with A63E, H80A counted along it

As usually defined, the Kd is the concentration at which binding is half-saturated. “human Survivin (wild type) (from UniProt O15392 1-142) (natural protein)”: in assay [1], the Kd is 121 µM and the dH was -14.6 kJ/mol.
“histone H3 (from UniProt P68431) S10ph H3 peptide beads (T3 state not stated)”: the “binding against the reference” value with Survivin 1-142 (reference: H3 peptide beads without S10ph, sites S10) is recorded as “same”.
With “histone H3 (from UniProt P68431) H3T3ph peptide beads”, in the assay with Survivin 1-142 (reference: unmodified H3 peptide beads, sites T3), the “binding against the reference” value is “same”.
Take “Survivin(K62Y/H80W) double mutant (from UniProt O15392 1-142) (natural protein)”: in assay [1], the equilibrium dissociation constant (Kd) came to 19.8 µM and the dH was -18.6 kJ/mol.

B1: H3(1–15)T3ph peptide (peptide, UniProt P68431 2-16, looked up)
peptide: AR[pT]KQTARKSTGGKA
For B1, the Kd in the assay with Survivin W67A mutant, in the assay with Survivin L64A mutant, with Survivin E63A mutant and with Survivin H80A mutant was over 200 µM throughout.
